The target of the assay is T1, Bacillus licheniformis subtilisin A (Bacillus licheniformis, UniProt P00780 106-379).
T1 sequence (looked up): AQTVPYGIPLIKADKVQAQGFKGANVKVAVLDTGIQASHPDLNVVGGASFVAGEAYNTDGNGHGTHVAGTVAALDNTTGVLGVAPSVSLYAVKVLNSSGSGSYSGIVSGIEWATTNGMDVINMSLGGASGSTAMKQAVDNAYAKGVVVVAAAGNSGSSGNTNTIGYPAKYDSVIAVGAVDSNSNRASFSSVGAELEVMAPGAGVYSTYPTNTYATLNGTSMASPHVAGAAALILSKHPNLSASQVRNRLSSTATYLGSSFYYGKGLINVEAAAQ
The assay can be described thus: enzyme inhibition assay.

As for AEDCVGRKACTAEWYPVCGSDGVTYSNPCNFSAQQEQCDPNITIAHMGEC (natural protein, Cenchritis muricatus, UniProt P84755 1-50, looked up) [rCmPI-II R12A, alanine mutant at the P1 position of CmPI-II], the “fold decrease of IC50 against rCmPI-II” value is 3 fold.

The values above are taken from PMC8131977 (Biochemistry and Biophysics Reports, 2021).
